Target: GFP1–10 tagged with MCP, with nuclear localization sequences
Assay: P3 editing (protein-protein proximity sensor; genome editing read-out); HEK293T cells transfected with one of 12 designs of crRNA-MS2/BoxB-petracrRNA (upper 4-bp region of the repeat:anti-repeat duplex varied), PE4max and split-GFP or standard GFP (background); editing normalized to the eCTT control

Substance: GFP11 tagged with LambdaN, with nuclear localization sequences (peptide)
- normalized editing efficiency (GAUA:UAUC guide RNA design): 3.8%

— article doi:10.1101/2023.08.14.553235
